From publication PMC8387964 (2021)

Tests used:
Rac1 [1] = target: Rac1 (Homo sapiens, UniProt P63000, Rac1 acetylated at K166)
Rac1 [2] = target: Rac1 (Homo sapiens, UniProt P63000)

B1: p67phox (protein)
chain: MSLVEAISLWNEGVLAADKKDWKGALDAFSAVQDPHSRICFNIGCMYTILKNMTEAEKAFTRSINRDKHLAVAYFQRGMLYYQTEKYDLAIKDLKEALIQLRGNQLIDYKILGLQFKLFACEVLYNIAFMYAKKEEWKKAEEQLALATSMKSEPRHSKIDKAMECVWKQKLYEPVVIPVGKLFRPNERQVAQLAKKDYLGKATVVASVVDQDSFSGFAPLQPQAAEPPPRPKTPEIFRALEGEAHRVLFGFVPETKEELQVMPGNIVFVLKKGNDNWATVMFNGQKGLVPCNYLEPVELRIHPQQQPQEESSPQSDIPAPPSSKAPGRPQLSPGQKQKEEPKEVKLSVPMPYTLKVHYKYTVVMKTQPGLPYSQVRDMVSKKLELRLEHTKLSYRPRDSNELVPLSEDSMKDAWGQVKNYCLTLWCENTVGDQGFPDEPKESEKADANNQTTEPQLKKGSQVEALFSYEATQPEDLEFQEGDIILVLSKVNEEWLEGECKGKVGIFPKVFVEDCATTDLESTRREV
Rac1 [1]
  Kd: 0.109 µM
Rac1 [2]
  Kd: 2.35 µM
